# Source: publication PMC8363725, “Mapping the biosynthetic pathway of a hybrid polyketide-nonribosomal peptide in a metazoan” (Nature Communications, 2021)
# T1: PKAL-1 (Caenorhabditis elegans, UniProt O02171)
# T1 construct: PKAL-1 from C. elegans cDNA library in pET16b-KH01, C-terminal His tag, expressed in E. coli BL21(DE3), Ni resin and Superdex 200
# T1 sequence (O02171 1-497): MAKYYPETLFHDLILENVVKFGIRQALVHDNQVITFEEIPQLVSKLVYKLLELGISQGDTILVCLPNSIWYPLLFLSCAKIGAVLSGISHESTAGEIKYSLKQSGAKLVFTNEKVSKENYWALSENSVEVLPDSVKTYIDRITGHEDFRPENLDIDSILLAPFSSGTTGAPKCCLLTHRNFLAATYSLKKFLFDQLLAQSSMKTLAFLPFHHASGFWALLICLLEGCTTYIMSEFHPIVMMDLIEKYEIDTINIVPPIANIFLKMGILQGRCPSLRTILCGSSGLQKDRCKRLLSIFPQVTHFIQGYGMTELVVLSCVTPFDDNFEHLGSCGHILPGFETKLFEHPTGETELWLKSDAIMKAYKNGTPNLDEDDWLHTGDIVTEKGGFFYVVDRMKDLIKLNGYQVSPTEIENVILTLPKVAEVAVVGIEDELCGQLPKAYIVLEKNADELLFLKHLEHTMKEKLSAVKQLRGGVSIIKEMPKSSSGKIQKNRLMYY
# B1: PKAL-1 (Caenorhabditis elegans) (protein)
# chain: T1 sequence (O02171 1-497)
# notes: PKAL-1 from C. elegans cDNA library in pET16b-KH01, C-terminal His tag, expressed in E. coli BL21(DE3), Ni resin and Superdex 200
# What was measured:
# PKAL-1 = target: T1, PKAL-1; assay: enzyme-coupled continuous spectrophotometric assay (NADH); format: biochemical; conditions: 4 mM ATP, 10 mM MgCl2, 100 mM hydroxylamine as acceptor, Tris pH 7.4, 22 °C; apparent
# purified protein = substrate: CCCCCCCCCCCCCCCC(=O)O; assay: purified protein; conditions: 4 mM ATP, 10 mM MgCl2, 100 mM hydroxylamine as acceptor, Tris pH 7.4, 22 °C, apparent
# [1] = substrate: CCCCCCCCCCCCCC(=O)O; assay: enzyme-coupled continuous spectrophotometric assay (NADH); format: biochemical, Caenorhabditis elegans; conditions: 4 mM ATP, 10 mM MgCl2, 100 mM hydroxylamine as acceptor, Tris pH 7.4, 22 °C, apparent
# [2] = substrate: CCCCCCCCCCCC(=O)O; assay: as above; format: biochemical, Caenorhabditis elegans; conditions: 4 mM ATP, 10 mM MgCl2, 100 mM hydroxylamine as acceptor, Tris pH 7.4, 22 °C, apparent
# [3] = substrate: CCCCCCCCCC(=O)O; assay: as above; format: biochemical, Caenorhabditis elegans; conditions: 4 mM ATP, 10 mM MgCl2, 100 mM hydroxylamine as acceptor, Tris pH 7.4, 22 °C, apparent
molecule,measurement,setting,value
CCCCCCCC(=O)O [C8],Km,PKAL-1,"C12, which is in turn preferred over C10 and C8"
B1,Km,purified protein,8.7 ± 0.4 µM
same,kcat,purified protein,0.0127 ± 0.000484 s⁻¹
same,Km,[1],21.8 ± 2.6 µM
same,kcat,[1],0.03 ± 0.00223 s⁻¹
same,Km,[2],84.6 ± 17.5 µM
same,kcat,[2],0.00943 ± 0.00211 s⁻¹
same,Km,[3],411.0 ± 20.2 µM
same,kcat,[3],0.0437 ± 0.00284 s⁻¹
